# From article PMC12000298 (Communications Biology, 2025)
# Like-named read-outs stand apart in the source and are kept apart here.
# B1: Ube2G2 (untagged, from 6xHis-SUMO-Ube2G2) (enzyme)
# chain: MAGTALKRLMAEYKQLTLNPPEGIVAGPMNEENFFEWEALIMGPEDTCFEFGVFPAILSFPLDYPLSPPKMRFTCEMFHPNIYPDGRVCISILHAPGDDPMGYESSAERWSPVQSVEKILLSVVSMLAEPNDESGANVDASKMWRDDREQFYKIAKQIVQKSLGL
# Key:
# Experiment in all cases: SEC
# [1] = target: B1
# [2] = target: GST-Gp78c (aa309-643, RING-CUE-G2BR) (UniProt Q9UKV5 309-643)
# [3] = target: B1; remark: listed apart in the source
# Chain of GST-Gp78c (aa309-643, RING-CUE-G2BR) (Q9UKV5 309-643): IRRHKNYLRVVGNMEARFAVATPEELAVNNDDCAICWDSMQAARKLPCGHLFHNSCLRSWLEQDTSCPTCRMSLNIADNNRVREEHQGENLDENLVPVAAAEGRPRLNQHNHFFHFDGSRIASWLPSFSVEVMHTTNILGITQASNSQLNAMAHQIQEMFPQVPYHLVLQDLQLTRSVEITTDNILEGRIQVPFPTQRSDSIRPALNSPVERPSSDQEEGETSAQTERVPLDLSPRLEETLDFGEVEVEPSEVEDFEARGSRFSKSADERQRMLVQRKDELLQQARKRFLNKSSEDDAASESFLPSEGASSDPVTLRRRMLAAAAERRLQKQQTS
binding result [3],Binder,further results
–,"CUE-G2BR^AUP1 (AUP1 C-terminal region, aa292-410) (domain or fragment) SPDVQLATLAQRVKEVLPHVPLGVIQRDLAKTGCVDLTITNLLEGAVAFMPEDITKGTQSLPTASASKFPSSGPVTPQPTALTFAKSSWARQESLQERKQALYEYARRRFTERRAQEAD",binding result [1]: binds
–,B1,binding result [2]: binds
binds,GGSSSSWARQESLQERKQALYEYARRRFTER [SBP-His6-G2BR^AUP1],–
binds,GGSSSADERQRMLVQRKDELLQQARKRFLNKS [SBP-His6-G2BR^Gp78],–
